Laboratory results from patent publication US20250243277A1 (AVACTA LIFE SCIENCES, published 2025).

B1: Clone 72 (designed binder)
chain: MIPGGLSEAKPATPEIQEIVDKVKPQLEEKTGETYGKLEAVQYKTQVVIHEPEIWWYGTNYYIKVRAGDNKYMHLKVFKSLHKADRQKEREDLVLTGYQVDKNKDDELTGF
notes: His-tagged
B2: Clone 71 (designed binder)
chain: MIPGGLSEAKPATPEIQEIVDKVKPQLEEKTGETYGKLEAVQYKTQVVASFPEISWYGTNYYIKVRAGDNKYMHLKVFKSLKNYPKTGVTEDLVLTGYQVDKNKDDELTGF
notes: His-tagged
B3: Clone 83 (designed binder)
chain: MIPGGLSEAKPATPEIQEIVDKVKPQLEEKTGETYGKLEAVQYKTQVVIYHELWNFYGTNYYIKVRAGDNKYMHLKVFKSLDNNGDGNWQEDLVLTGYQVDKNKDDELTGF
notes: His-tagged
B4: Clone 76 (designed binder)
chain: MIPGGLSEAKPATPEIQEIVDKVKPQLEEKTGETYGKLEAVQYKTQVVHDFTIRYPWGTNYYIKVRAGDNKYMHLKVFKSLEYHVTKRDQEDLVLTGYQVDKNKDDELTGF
notes: His-tagged
B5: Clone 8 (designed binder)
chain: MIPGGLSEAKPATPEIQEIVDKVKPQLEEKTGETYGKLEAVQYKTQVVPLPDPIDWVGTNYYIKVRAGDNKYMHLKVFKSLHIHLNQIYREDLVLTGYQVDKNKDDELTGF
notes: His-tagged
B6: Clone 75 (designed binder)
chain: MIPGGLSEAKPATPEIQEIVDKVKPQLEEKTGETYGKLEAVQYKTQVVINQHENFKQGTNYYIKVRAGDNKYMHLKVFKSLHLFHGLWYIEDLVLTGYQVDKNKDDELTGF
notes: His-tagged
B7: Clone 7 (designed binder)
chain: MIPGGLSEAKPATPEIQEIVDKVKPQLEEKTGETYGKLEAVQYKTQVVRQYYEWSWVGTNYYIKVRAGDNKYMHLKVFKSLFESPTEDNDEDLVLTGYQVDKNKDDELTGF
notes: His-tagged
B8: Clone 88 (designed binder)
chain: MIPGGLSEAKPATPEIQEIVDKVKPQLEEKTGETYGKLEAVQYKTQVVAVHAPQYAPGTNYYIKVRAGDNKYMHLKVFKSLWSEKVAVFPEDLVLTGYQVDKNKDDELTGF
notes: His-tagged
B9: Clone 70 (designed binder)
chain: MIPGGLSEAKPATPEIQEIVDKVKPQLEEKTGETYGKLEAVQYKTQVVIEEPSAFWWGTNYYIKVRAGDNKYMHLKVFKSLLRVRHSAYREDLVLTGYQVDKNKDDELTGF
notes: His-tagged
B10: Clone 85 (designed binder)
chain: MIPGGLSEAKPATPEIQEIVDKVKPQLEEKTGETYGKLEAVQYKTQVVNDGKSLVLAGTNYYIKVRAGDNKYMHLKVFKSLRLWDDRVSGEDLVLTGYQVDKNKDDELTGF
notes: His-tagged
B11: Clone 78 (designed binder)
chain: MIPGGLSEAKPATPEIQEIVDKVKPQLEEKTGETYGKLEAVQYKTQVVDQGWWENWAGTNYYIKVRAGDNKYMHLKVFKSLIWENNLRIHEDLVLTGYQVDKNKDDELTGF
notes: His-tagged
B12: Clone 74 (designed binder)
chain: MIPGGLSEAKPATPEIQEIVDKVKPQLEEKTGETYGKLEAVQYKTQVVRRWELWSFQGTNYYIKVRAGDNKYMHLKVFKSLWQEHTDSVEEDLVLTGYQVDKNKDDELTGF
notes: His-tagged
B13: Clone 73 (designed binder)
chain: MIPGGLSEAKPATPEIQEIVDKVKPQLEEKTGETYGKLEAVQYKTQVVDWGWGIPWVGTNYYIKVRAGDNKYMHLKVFKSLWLYGVKRLPEDLVLTGYQVDKNKDDELTGF
notes: His-tagged
B14: Clone 87 (designed binder)
chain: MIPGGLSEAKPATPEIQEIVDKVKPQLEEKTGETYGKLEAVQYKTQVVKRLHLPQYPGTNYYIKVRAGDNKYMHLKVFKSLGNIEPITDLEDLVLTGYQVDKNKDDELTGF
notes: His-tagged

biological target: T1, human PD-L1-Fc (R&D Systems) (human, UniProt Q9NZQ7 19-239); assay: soluble Affimer ELISA
T1 construct: Bought from R&D Systems; Biotinylated in-house for the phage selection; also called huPD-L1-Fc; human PD-L1-Fc antigen; not shown: Fc part of the bought fusion
T1 sequence (Q9NZQ7 19-239 limits assumed): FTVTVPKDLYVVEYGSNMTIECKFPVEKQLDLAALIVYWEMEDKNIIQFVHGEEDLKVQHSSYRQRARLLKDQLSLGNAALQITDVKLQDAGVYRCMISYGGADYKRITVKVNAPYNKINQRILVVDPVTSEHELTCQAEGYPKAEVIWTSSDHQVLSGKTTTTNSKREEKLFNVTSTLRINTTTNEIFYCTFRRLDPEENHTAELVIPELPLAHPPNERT

binding result	Binder
binds	B1
binds	B2
binds	B3
binds	B4
binds	B5
binds	B6
binds	B7
binds	B8
binds	B9
binds	B10
binds	B11
binds	B12
binds	B13
binds	B14
